Measured values reported in US20240116985A1 (published 2024).
Starred links: 1 amine or outer side, 2 acyl side, 3 side chain; linkers in the order of their positions; H or OH if unused. Positions of bridges follow the written chain, without caps; N, C: chain ends. Non-standard residues stand in square brackets, D forms with d. Primed or numbered codes have the meaning given here. PyrS2(3) = (S)-3-amino-1-((pent-4-en-1-yloxy)carbonyl)pyrrolidine-3-carboxylic acid, stapling residue, C=CCCCOC(=O)N1CC[C@@](N[*:1])(C(=O)[*:2])C1; B5(18) = 2,2-bis(4-pentenyl)glycine (2-amino-2-(pent-4-en-1-yl)hept-6-enoic acid), stitching residue, C=CCCCC(CCCC=C)(N[*:1])C(=O)[*:2]; B5(4) = 2,2-bis(4-pentenyl)glycine = 2-amino-2-(pent-4-en-1-yl)hept-6-enoic acid (stitching residue), C=CCCCC(CCCC=C)(N[*:1])C(=O)[*:2]; TfeGA = (S)-2-amino-3-((carboxymethyl)(2,2,2-trifluoroethyl)amino)propanoic acid, O=C([C@H](CN(CC(=O)[*:3])CC(F)(F)F)N[*:1])[*:2]; HypEs5 = (2R,4S)-4-(pent-4-enoyloxy)pyrrolidine-2-carboxylic acid, C=CCCC(=O)O[C@H]1C[C@H](C(=O)[*:2])N([*:1])C1; TriAzDap = Dap whose side chain is a 1H-1,2,3-triazol-1-yl bearing the bracketed 4-substituent; B5″ = 2,2-bis(4-pentenyl)glycine, stitching residue, C=CCCCC(CCCC=C)(N[*:1])C(=O)[*:2]; B5(28) = 2,2-bis(4-pentenyl)glycine, C=CCCCC(CCCC=C)(N[*:1])C(=O)[*:2]; Phe(3-COOH) = N[C@@H](Cc1cccc(C(=O)O)c1)C(=O)O; Phe(2-Cl) = N[C@@H](Cc1ccccc1Cl)C(=O)O; Bta = N[C@@H](Cc1csc2ccccc12)C(=O)O; αAllylPro = C=CC[C@@]1(C(=O)O)CCCN1; tBuAla = CC(C)(C)C[C@H](N)C(=O)O; 3Thi = N[C@@H](Cc1ccsc1)C(=O)O; S8 = C=CCCCCCC[C@](C)(N)C(=O)O; NMeS = CN[C@@H](CO)C(=O)O

T1: B-cat-Halo (beta-catenin HaloTag construct expressed in HEK293 cells) (UniProt P35222 1-781)
T1 sequence (looked up): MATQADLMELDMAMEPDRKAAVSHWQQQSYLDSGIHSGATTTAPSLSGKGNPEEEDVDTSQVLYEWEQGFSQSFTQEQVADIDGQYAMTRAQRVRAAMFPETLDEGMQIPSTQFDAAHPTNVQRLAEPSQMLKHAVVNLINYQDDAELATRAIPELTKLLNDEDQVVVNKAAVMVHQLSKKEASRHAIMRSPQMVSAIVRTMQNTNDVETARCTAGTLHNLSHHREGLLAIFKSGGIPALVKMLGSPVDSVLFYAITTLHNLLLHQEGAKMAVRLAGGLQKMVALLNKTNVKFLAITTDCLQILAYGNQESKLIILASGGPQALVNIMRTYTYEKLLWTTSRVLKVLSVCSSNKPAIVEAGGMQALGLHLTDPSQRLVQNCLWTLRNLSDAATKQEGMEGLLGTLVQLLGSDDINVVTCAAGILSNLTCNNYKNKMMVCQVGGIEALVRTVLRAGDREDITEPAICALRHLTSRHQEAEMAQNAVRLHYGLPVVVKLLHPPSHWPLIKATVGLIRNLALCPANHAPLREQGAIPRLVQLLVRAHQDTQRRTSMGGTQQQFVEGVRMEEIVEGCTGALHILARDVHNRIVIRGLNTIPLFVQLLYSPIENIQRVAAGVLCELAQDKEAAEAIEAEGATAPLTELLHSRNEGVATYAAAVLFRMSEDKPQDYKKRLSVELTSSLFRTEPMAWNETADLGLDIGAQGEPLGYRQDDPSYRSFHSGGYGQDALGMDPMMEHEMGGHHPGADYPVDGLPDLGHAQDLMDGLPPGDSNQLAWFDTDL

T2: full-length beta-Catenin (Uniprot ID P35222) (Homo sapiens (Human), UniProt P35222 2-781)
T2 construct: Also used here for the endogenous beta-catenin of the DLD1 TCF reporter cells; also called bCat; B-Catenin
T2 sequence: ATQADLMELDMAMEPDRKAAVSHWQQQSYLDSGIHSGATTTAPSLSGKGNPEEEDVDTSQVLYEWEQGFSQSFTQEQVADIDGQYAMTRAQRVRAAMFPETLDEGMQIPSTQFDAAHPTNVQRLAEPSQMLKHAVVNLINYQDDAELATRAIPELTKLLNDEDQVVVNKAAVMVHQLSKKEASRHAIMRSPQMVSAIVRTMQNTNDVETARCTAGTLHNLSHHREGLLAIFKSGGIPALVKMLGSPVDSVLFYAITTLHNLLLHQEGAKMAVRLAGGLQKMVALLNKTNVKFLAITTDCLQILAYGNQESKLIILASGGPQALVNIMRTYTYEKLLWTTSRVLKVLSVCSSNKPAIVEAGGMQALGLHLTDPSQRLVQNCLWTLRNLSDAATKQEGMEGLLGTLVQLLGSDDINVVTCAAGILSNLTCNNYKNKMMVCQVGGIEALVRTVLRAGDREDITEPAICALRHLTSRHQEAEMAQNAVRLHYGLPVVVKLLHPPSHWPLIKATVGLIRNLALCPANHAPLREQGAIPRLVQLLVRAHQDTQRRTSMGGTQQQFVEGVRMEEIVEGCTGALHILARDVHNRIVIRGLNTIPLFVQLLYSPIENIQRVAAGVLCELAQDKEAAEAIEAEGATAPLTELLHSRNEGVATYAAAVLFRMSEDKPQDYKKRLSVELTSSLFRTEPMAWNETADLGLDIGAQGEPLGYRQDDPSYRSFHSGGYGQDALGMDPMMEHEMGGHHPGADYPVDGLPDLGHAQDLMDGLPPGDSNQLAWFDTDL


target: T1, B-cat-Halo (beta-catenin HaloTag …); test: cell-based or functional assay

| Binder | NanoBRET Abs IC50 |
| --- | --- |
| Ac-[αAllylPro]D[tBuAla][B5(18)]D[Phe(3-COOH)]AAFL[PyrS2(3)][Phe(2-Cl)][Bta]A-NH2 (staple 1-4, 4-11) [I-1851] | 3.8 µM |
| Ac-[αAllylPro]D[tBuAla][B5(18)]D[TfeGA]AAF[TriAzDap](CH2NMe2)[PyrS2(3)][3Thi][Bta]Q-NH2 (staple 1-4, 4-11; not fully specified) [I-1862] | 19.3 µM |
| Ac-[HypEs5]D[tBuAla][B5(18)]D[TfeGA]AAFT[PyrS2(3)][Phe(2-Cl)][Bta]Q-NH2 (staple 1-4, 4-11) [I-1846] | 29.8 µM |
| Ac-[HypEs5]D[tBuAla][B5(18)]D[Phe(3-COOH)]AAFL[PyrS2(3)][Phe(2-Cl)][Bta]Q-NH2 (staple 1-4, 4-11) [I-1847] | 26.2 µM |
| Ac-[αAllylPro]D[tBuAla][B5(18)]D[TfeGA]AAF[TriAzDap](CH2NMe2)[PyrS2(3)][3Thi][Bta]Q-NH2 (staple 1-4, 4-11; not fully specified) [I-1861] | 37.3 µM |

The remaining lines, values ahead:

| NanoBRET Abs IC50 | Binder |
| --- | --- |
| 8.8 µM | Ac-[αAllylPro]D[tBuAla][B5(18)]D[Phe(3-COOH)]AAFA[PyrS2(3)][Phe(2-Cl)][Bta]S-NH2 (staple 1-4, 4-11) [I-1849] |
| 16.3 µM | Ac-[αAllylPro]N[tBuAla][B5(18)]D[Phe(3-COOH)]AAFL[PyrS2(3)][Phe(2-Cl)][Bta]S-NH2 (staple 1-4, 4-11) [I-1853] |
| 3.8 µM | Ac-[αAllylPro]D[tBuAla][B5(18)]D[Phe(3-COOH)]AAFV[PyrS2(3)][Phe(2-Cl)][Bta]S-NH2 (staple 1-4, 4-11) [I-1850] |
| > 20 µM | Ac-[αAllylPro]D[tBuAla][B5(18)]DC(2COOH4NO2Ph)AAFL[PyrS2(3)][3Thi][Bta]Q-NH2 (staple 1-4, 4-11) [I-1848] |
| 4.9 µM | Ac-[αAllylPro]D[tBuAla][B5(18)]D[Phe(3-COOH)]AAFL[PyrS2(3)][Phe(2-Cl)][Bta]-NH2 (staple 1-4, 4-11) [I-1852] |

target: T2, full-length beta-Catenin (Uniprot ID …); test: fluorescence polarization competition; full-length beta-catenin, competitor 5FAM-TCF4(10-53) probe
Outline: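 Data fitted to 1:1 binding model with hill slope from duplicate reads taken after 60 minutes at 20° C. in the dark.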

| EC50 | Binder |
| --- | --- |
| 1.53 µM | Ac-[αAllylPro]DL[B5(4)]DEAAFN[S8]F[Bta][NMeS]-NH2 (staple 1-4, 4-11; also: earlier-eluting HPLC peak (staple isomer), Stapled peptide composition) [I-759] |
| 0.608 µM | Ac-[αAllylPro]DL[B5″]DEAAFN[S8]F[Bta][NMeS]-NH2 (staple 1-4, 4-11, Stapled peptide composition) [I-760] |
| 0.056 µM | Ac-[αAllylPro]DL[B5(4)]DEAAFN[S8]F[Bta][dS]-NH2 (staple 1-4, 4-11, Stapled peptide composition) [I-756] |
| 0.029 µM | Ac-[αAllylPro]DL[B5(28)]DEAAFN[S8]F[Bta]S-NH2 (staple 1-4, 4-11, Stapled peptide composition) [I-751] |
| 0.043 µM | Ac-[αAllylPro]DL[B5(4)]DEAAFN[S8]F[Bta]S-NH2 (staple 1-4, 4-11; also: olefin E/Z not assigned, earlier-eluting staple isomer, Stapled peptide composition) [I-750] |
